“Also recorded” adds a separate entry of the source.
How the values were obtained:
tmCLIC1 ion channel [1] = molecular target: T1, tmCLIC1 ion channel (Homo sapiens, UniProt O00299); experiment: Patch clamp of CLIC1-mediated chloride current in primary human tumour cultures; assay type: cell-based; conditions: perforated patch clamp; glioblastoma, colorectal and prostate primary human tumour cultures; perfusion of antibody
T1 construct: endogenous in cells; host or cells: primary human glioblastoma, colorectal cancer and prostate cancer cells
Description: (§1) The microelectrodes were obtained from borosilicate capillaries with a diameter of 1.5 mm. Micropipettes were produced with a P-97 Brown-Flaming puller (Sutter Instruments, Novato, CA), with which the capillaries were forged to a tip diameter of 1-1.5 μm and electrical resistance of 5-8 MΩ.
(§2) The perforated patch clamp configuration was used for the whole-cell experiments, employing the antibiotic gramicidin (final concentration in pipette 5 μg/ml) which forms pores in the membrane that are only permeable to monovalent cations; in this way, the cytoplasmic concentration of the chloride ion remains unchanged throughout the experiment. The ion currents were digitised at 5 kHz and filtered at 1 kHz. Clampex 9.2 was used as the data acquisition and analysis programme.
(§3) In the time-course experiments, the potential was set on the basis of the resting potential of each cell, and a voltage step of +60 mV was applied every 5 seconds. The current measured is that observed at the end of the voltage step lasting 800 ms. When the amplitude of the current reaches a constant value, the antibody and IAA94 are added in sequence.
For the current-voltage graph, the voltage step protocol used to isolate the currents consisted of voltage variations ranging from −60 mV to +60 mV, with progressive increments of 20 mV lasting 800 ms. […]

tmCLIC1 ion channel [2] = molecular target: T2, tmCLIC1 ion channel (Mus musculus, UniProt Q9Z1Q5); experiment: Whole-cell patch clamp on BV2 microglial cells with β-amyloid; assay type: cell-based, mice; conditions: whole-cell configuration, perfusion of antibody after β-amyloid
T2 construct: endogenous in cells; host or cells: BV-2 mouse microglial cell line
Text: The microglial cells used (BV-2) originated from an immortalised cell line deriving from C57BL/6 mice and commonly marketed. The culture medium used was RPMI (Thermo Fisher Scientific) with the addition of 10% FBS (Euroclone) and 1% Pen/Strep ([…], Thermo Fisher Scientific).
as §1, §2
as §3, with “sequence. […]” for “sequence.”

human glioblastoma cells = experiment: Growth curves of human glioblastoma cells in primary culture; assay type: cell-based
Text: The primary glioblastoma cell lines, already tested for stem cell properties and carcinogenicity, were kindly supplied by Professor T. Florio's laboratory at Genoa University (Genoa, Italy). The cells were obtained from a surgical biopsy performed in the Neurosurgery Department of IRCCS-AOU San Martino IST (Genoa, Italy), from patients who had not received any treatment before the operation. The samples were histologically classified as GB grade IV (according to the WHO classification), and were used after obtaining the patients' informed consent and the approval of the Institutional Ethics Committee (IEC). The cells were cultured in stem cell-permissive medium consisting of Dulbecco's Modified Eagle's Medium (DMEM) and F12-GlutaMAX at the ratio of 1:1, supplemented with 1×B27 (Thermo Fisher Scientific), […] of fibroblast growth factor (FGF, Miltenyi Biotec), […] of human epidermal growth factor (EGF, Miltenyi Biotec) and 1% penicillin/streptomycin (Pen/Strep, […]) (Thermo Fisher Scientific).
The cells were seeded in 24-well plates (20,000 cells/well) and counted after 24, 48, 72 and 96 hours to construct the growth curve. The cells were collected and centrifuged, and the resuspended pellet was diluted 1:1 with Trypan Blue. An automated counter (Countess II, Thermo Fisher Scientific) was used to count the cells. All data were normalized to their controls.

COLO201 = experiment: Trans well migration and invasion assay; assay type: cell-based; conditions: COLO201 WT, 72 h
Description: The overexpression of tmCLIC1 in the most aggressive cell lines of colorectal cancer and its pivotal role in regulation of cell cycle progression and proliferation, opens a question on the function of tmCLIC1 activity on migration and invasion potential of CRCs, that makes colorectal cancer still uncurable. We performed a Trans well assay to understand whether CLIC1 impairment could affect the migration and invasion potential of COLO201. Cells were plated after 60 hours of serum deprivation on a porous membrane, permeable only to growth factor, in contact to complete medium. The resulting chemo-attractant gradient leads the migrative cells to cross the membranes that are then stained with DAPI to visualize the nuclei. […] For invasion assays, we coated with Matrigel the porous membrane to mimic the extracellular matrix that cells must disrupt to invade tissues and mucosa.
Cells were plated after 60 hours of serum deprivation on a […] porous membrane, permeable only to growth factor, in contact to complete medium. Membranes were cut, stained with DAPI dye, and included with mowiol. Cover glasses were examined under Zeiss Examiner A1 fluorescence microscope with a Zeiss 40×/0.75 NA water immersion lens.

tmCLIC1 = molecular target: T3, tmCLIC1 (Homo sapiens, UniProt O00299); experiment: Immunofluorescence on monocytes isolated from peripheral blood; assay type: cell-based; conditions: monocytes of Alzheimer's disease patients and controls, fluorescent secondary antibody
T3 construct: monocytes isolated from the peripheral blood of patients with a diagnosis of Alzheimer's disease and controls; endogenous in cells; host or cells: human peripheral blood monocytes (Alzheimer's disease patients and healthy controls)
Description: For each individual, 8 ml of peripheral blood was collected in BD Vacutainer® CPT™ test tubes with sodium citrate, gently mixed by inversion and centrifuged at room temperature for 20 min. at 1600 rpm to separate three distinct phases: a bottom layer containing red blood cells, an intermediate layer containing mononuclear cells, and a top layer containing plasma. The layer of mononuclear cells was collected together with part of the plasma and transferred to a centrifuge tube. PBS was added until a final volume of […] was reached, and it was gently mixed by inversion and centrifuged for 10 min. at 300 rpm. The resulting pellet underwent two further washes in 5 ml of PBS, and was used for the subsequent experiments.
The pellet of mononuclear cells isolated from the blood was counted and divided into samples containing an equal number of cells (1×10^6 cells/sample). Each sample was resuspended in 90 μl of cold staining solution (0.5% BSA, 2 mM EDTA in PBS) and, after the addition of 10 μl of FcR blocker (Miltenyi Biotec), was incubated in ice for 15 min. 10 μl of primary antibody diluted in staining solution was then added, and the sample was incubated for 1 h in ice. At the end of the incubation period, each sample was washed with 1 ml of cold staining solution and centrifuged at 350 rpm for 5 min. […]

B1: tmCLIC1omab: IgG1 class antibody containing the heavy chain variable region SEQ ID NO:13 and the light chain variable region SEQ ID NO:14 (antibody, listed as Mus musculus, V domains shown)
VH: EVMLVESGGGLVKPGGSLKLSCAASGFAFSNYAMSWIRQIPEKRLEWVATISTGGSSTFYPDSVKGRFTISRDNAKNTLYLQMSSLRSEDTAMYYCTRHAYEAWFAYWGQGTLVTVSA
VL: QIVLTQSPALMSASPGEKVTMTCSASSSVSYMYWYQQRPRSSPKPWIYLTSTLASGVPTRFSGSGSGTSYSLTISSMEAEDAATYYCQQWNSHPLTFGSGTKLEIK
tmCLIC1 ion channel [1]
  CLIC1-mediated chloride current (current density/voltage): almost totally eliminated; also recorded: depressed and almost eliminated the membrane current
tmCLIC1 ion channel [2]
  reduction of membrane current increased by β-amyloid peptide: about fourfold
Human glioblastoma cells; glioblastoma cells, FIG. 9
  growth rate compared with Clic1−/− knockout cells: the same growth rate
Human glioblastoma cells; primary culture, 4-day period
  cell growth (growth curve): inhibited cell growth
COLO201
  migration (number of migrative nuclei) versus control: significant lower number of migrative nuclei
COLO201; Matrigel-coated membrane
  invasion (number of invasive nuclei) versus control: the same behavior seen for migration assay
tmCLIC1
  specificity of staining on monocytes: specificity of the antibody for the membrane protein

— patent US20240002499A1, “ANTI-CLIC1 PROTEIN ANTIBODIES AND THE DIAGNOSTIC AND THERAPEUTIC USES THEREOF” (Universita' Degli Studi di Milano, priority 2020, published 2024)
